Assay results: US11351270B2, “Junctophilin-2 fragments and uses therefor” (University of Iowa Research Foundation, priority 2016, dated 2022)

Legend:
[1] = test system: cultured adult murine cardiomyocytes; test: Affymetrix Genechip analysis of cultured cardiomyocytes; type: cell-based, mouse
Method: Genecarrior-1 (Epoch Lab) was used to transfect plasmids into HEK293T cells. Isolation and culture of cardiomyocytes were performed as described previously (Guo et al., 2015). Adenoviruses were applied at a multiplicity of infection (MOI) of about 100, which results in transfection of almost all cells as confirmed by immunostaining of eptiope tags.
Microarray assay was performed by Affymetrix GeneChip® Mouse Genome 430 2.0 according to the standard procedure of cRNA preparation and Genechip hybridization. The R package limma (version 3.22.7) (Ritchie et al., 2015) was used for processing microarray data and identifying differentially expressed genes (the cutoff of significance was p value<0.01). David (Huang et al., 2009) was used for gene enrichment (GO) analysis. Ingenuity pathway analysis (IPA, Qiagen) was used for pathway analysis.

[2] = test system: pressure overload hypertrophy and heart failure; test: Transaortic banding (TAB) pressure overload in JP2NT-OE mice; type: in vivo, mouse
Method: Animal experiments were performed in accordance with the Guide for the Care and Use of Laboratory Animals (National Institutes of Health publication 85-23, revised 1996) and were approved by the Institutional Animal Care and Use Committee at the University of Iowa. Cardiac specific JP2NT overexpression vector was constructed by subcloning mouse JP2NT cDNA (Guo et al., 2015) into a tet-operated αMHC transgenic vector, as described previously (Guo et al., 2014). The oocyte injection of transgenic vectors was carried out by University of Iowa transgenic core. The injected oocytes were transferred to pseudopregnant recipients. Transgenic offsprings were backcrossed with C57BL/6J mice for >9 generations to generate transgenic mice in a C57BL/6J background. These transgenic mice were crossed with αMHC-tTA (C57 background) (Guo et al., 2014) to generate double transgenic mice (JP2NT-OE) carrying both αMHC-JP2NT and αMHC-tTA. The non-overexpression single transgenic littermates were used as control. PCR was used to determine the genotype of transgenic mice. Nine to 10-wk-old male JP2NT-OE mice and their control littermates were subjected to pressure overload by transaortic banding (TAB) surgery, as described (Guo et al., 2014). Transthoracic echocardiograms were performed with conscious mice in the University of Iowa Cardiology Animal Phenotyping Core Laboratory, using a Vevo 2100 Imager (Visual Sonics), as described previously (Cheng et al., 1993).

[3] = test system: cardiac transcription profile; test: RNA-Seq of myocardium of JP2NT-OE mice; type: in vivo, mouse
Method: Illumina TruSeq Stranded mRNA Library Prep Kit was used to prepare the sequencing library for myocardium samples. Sequencing was performed by Illumina HiSeq 2500 platform (2×125 bp paired-end). Kallisto (0.42.5) software (Bray et al., 2016) was used to quantify transcript abundance of mouse transcriptome (Grcm38). Sleuth (0.28.1) software (Pimentel et al., 2018) was used to investigate the differential expression of transcripts between groups (the cutoff of significance was p value<0.01).

[4] = test system: chromatin; test: Biochemical fractionation for chromatin association; type: cell-based; conditions: MNASE digestion, Western blot
Source text: FIGS. 10A-D. JP2NT contains a NLS and a chromatin/DNA-binding domain. A-B) A conserved NLS in JP2 N-terminus is essential for nuclear accumulation of JP2NT. a-c, Subcellular localization of eGFP and eGFP-fused JP2 and eGFP-JP2NT in 293T cells. Full length JP2 localizes on both plasma membrane and ER network (b). […] C-D) JP2NT associates with chromatin. a, Schematic of the subcellular fractionation approach (adapted from Wisoka et al 2001). b, Subnuclear distribution of JP2NT and fragments/mutants. JP2NT is present in both soluble nuclear (S3) and chromatin fractions (S4). Deletion of the MORN domains (JP2NT JP2NT^ΔMORNs) had no effect on subnuclear distribution of JP2NT. However, the amount of chromatin-associated JP2NT was decreased by deletion of the bNLS alone (JP2NT^ΔMORNs/ΔbNLS), deletion of the ARR alone (JP2 JP2NT^ΔMORNs/ΔARR), or deletion of both the bNLS and ARR (JP2^ΔMORNs/ΔbNLS/ΔARR and JP2NT^ΔbNLS/ΔARR). Histone H3: chromatin marker.
Ultracentrifuge based protein fractionation was performed following the protocol described previously (van Berlo et al., 2013). For some experiments, the soluble nuclear fraction (Nu-S) was separately extracted using nuclear extraction buffer (NEB) from the Tissue subcellular fractionation kit of Thermo Scientific, and the remaining insoluble fraction was subjected to MNASE digestion for chromatin fraction extraction. […]

[5] = after TAB, relative to controls

B1: JP2NT: shorter form of Junctophilin-2 including the first 565 amino acids of N-terminus of JP2 (protein, UniProt Q9BR39 1-565, looked up, fragment)
chain: MSGGRFDFDDGGAYCGGWEGGKAHGHGLCTGPKGQGEYSGSWNFGFEVAGVYTWPSGNTFEGYWSQGKRHGLGIETKGRWLYKGEWTHGFKGRYGIRQSSSSGAKYEGTWNNGLQDGYGTETYADGGTYQGQFTNGMRHGYGVRQSVPYGMAVVVRSPLRTSLSSLRSEHSNGTVAPDSPASPASDGPALPSPAIPRGGFALSLLANAEAAARAPKGGGLFQRGALLGKLRRAESRTSVGSQRSRVSFLKSDLSSGASDAASTASLGEAAEGADEAAPFEADIDATTTETYMGEWKNDKRSGFGVSERSSGLRYEGEWLDNLRHGYGCTTLPDGHREEGKYRHNVLVKDTKRRMLQLKSNKVRQKVEHSVEGAQRAAAIARQKAEIAASRTSHAKAKAEAAEQAALAANQESNIARTLARELAPDFYQPGPEYQKRRLLQEILENSESLLEPPDRGAGAAGLPQPPRESPQLHERETPRPEGGSPSPAGTPPQPKRPRPGVSKDGLLSPGAWNGEPSGEGSRSVTPSEGAGRRSPARPATERMAIEALQAPPAPSREPEVALYQG
modifications: GST or adenoviral forms
notes: shorter form of Junctophilin-2 including the first 565 amino acids of N-terminus of JP2
differentially expressed genes mapped to genomic loci bound in ChIP-seq [1]: about 74%
ERK/MAPK, NF-κB, TGF-β and integrin signaling pathways (Ingenuity Pathway Analysis) ([1]; IPA of differentially expressed genes): predicted to be inhibited
significantly induced known genes (p<0.01) ([1]; vs Ad-Empty control): 574 genes
significantly repressed known genes (p<0.01) ([1]; vs Ad-Empty control): 1996 genes
cardiac function (ejection fraction) ([2]; 3 weeks after TAB, relative to controls): improved cardiac function
pressure overload induced heart failure ([2]; JP2NT OE mice): resistant
heart weight/body weight ratio [2, 5]: lower
lung edema (lung weight/body weight ratio) [2, 5]: reduced lung edema
cardiac morphology or function at baseline ([2]; baseline, no TAB): no effect
ERK, TGF-β, CREB and NFκ-B signaling pathways (IPA) ([3]; TAB): predicted inhibition
known genes of negatively influenced transcripts ([3]; TAB): 481 genes
known genes of positively influenced transcripts ([3]; TAB): 476 genes
transcripts negatively influenced ([3]; TAB): 540 transcripts
transcripts positively influenced ([3]; TAB): 542 transcripts
transcripts significantly different in response to cardiac stress ([3]; TAB, linear regression model, p<0.01): 1082 transcripts
known genes from which the significantly different transcripts derive ([3]; TAB, p<0.01): 954 genes
significantly altered genes (p<0.01) at baseline ([3]; baseline, relative to control littermates): 49 genes
association with chromatin (insoluble nuclear fraction) [4]: detected in both soluble (S3) and chromatin containing insoluble (P4) nuclear fractions
